These results are taken from article PMC6201588, “Molecular cloning and characterization of vanillin dehydrogenase from Streptomyces sp. NL15-2K” (BMC Microbiology, 2018).

One data set relates to COc1cc(C=O)ccc1O. Kind of data set: purified protein. To be noted: co-substrate NAD+ (0.5 mM in standard assay), 30 °C, pH 9.5.
In data set [1] the test system is NC(=O)c1ccc[n+]([C@@H]2O[C@H](COP(=O)(O)OP(=O)(O)OC[C@H]3O[C@@H](n4cnc5c(N)ncnc54)[C@H](O)[C@@H]3O)[C@@H](O)[C@H]2O)c1. Briefly: purified protein. To be noted: co-substrate vanillin, pH 9.5, varied: cofactor.
The target of data set [2] is vanillin dehydrogenase from Streptomyces sp. NL15-2K (recombinant) (Streptomyces sp. NL15-2K). Kind of data set: SEC; gel filtration of purified recombinant VDH on Superdex 200 10/300 GL, calibrated with thyroglobulin, ferritin, aldolase, conalbumin and ovalbumin; native mass compared with the subunit mass by SDS-PAGE. A general note: Size exclusion chromatography separates by hydrodynamic size, large species first.

With “VDH (vanillin dehydrogenase) from Streptomyces sp. NL15-2K (Streptomyces sp. NL15-2K; S2A)”, in the data set with COc1cc(C=O)ccc1O, the Km amounted to 8.47 ± 0.91 µM, the kcat is 9.35 ± 0.77 s⁻¹ and the kcat/Km was determined as 1.11e+06 ± 100000 M⁻¹ s⁻¹. In data set [1], the Km was found to be 647 ± 40.0 µM and the kcat amounted to 23.45 ± 0.59 s^− 1.

With “vanillin dehydrogenase from Streptomyces sp. NL15-2K (recombinant) (enzyme)”, the stoichiometry N in data set [2] was 4.

The Km is the concentration of substrate that gives half-maximal velocity. As a reminder, the kcat/Km is the turnover number divided by the Michaelis constant. Usually stoichiometry N stands for the number of molecules, sites or subunits per partner or assembly.
